{"source": "patent US20030022244A1", "binders": {"B1": {"name": "ME1 single-chain antibody (scFv ME1) (scFv)", "scFv": "QVKLQQSGAELAKPGASVKMSCKTSGYTFTSYWMNWVKQRPGQGLEWIGYINPTTGYTKYNQKFKDKATLTADKSSSTAYMQLSSLTNVDSAVYYCTTGYSYFDYWGQGTTVTVSSGGGGSGGGGSGGGGSDIELTQSPAIMSASPGEKVTITCSASSSVNYMHWFQQKPGTSPKLWISSTSNLASGVPARFSGSGSGTSYSLTISRMEAEDAATYYCQQRSSYPYTFGGGTKLQIKRAAAGAPVPYPDPLEPRAA"}}, "biological_target": "mutant p53 protein", "assay": "method not stated", "data": [{"binder": "B1", "values": [{"measurement": "Kd", "value": 100, "unit": "nM"}]}]}
